# Measured values from paper PMC7127234.
# How the values were obtained:
# [1] = test system: CCCCN1C(=O)c2cccc3c(NC(=O)[C@@H]4CCCN4C(=O)CN)ccc(c23)C1=O; experiment: purified protein; conditions: Gly-Pro group cleaved by DPP-IV to release BAN
# [2] = test system: Cc1cc(=O)oc2cc(NC(=O)[C@@H]3CCCN3C(=O)CN)ccc12; experiment: purified protein
substance,measurement,setting,value
DPP-IV (dipeptidyl peptidase IV) (Homo sapiens),Km,[1],42.93 µM
same,Km,[2],237.80 µM
